Data on 3 molecules can be found in patent US20110015139A1 (HE HENRY M JACKSON FOUNDATION FOR THE ADVANCEMENT OF …, published 2011).

For the assay, the target named is amyloid beta (Aβ) peptide, incorporated in membranes as the Aβ channel. The experiment in a line: cell-based or functional assay.

Turning to Ac-HHHH-NH2 [NAHIS04 (Ac-His-His-His-His-CONH2)], the “concentration required for 50% protection (EC50) of PC12 cells from Aβ cytotoxicity, LDH release assay, 3 days” value was under 1000 nM and the “speed of 50% reduction of the flow of ionic charges, relative to NAHIS02” value amounted to 8 fold.
As for SGYEVHH [NA4], the “EC50 of protection of PC12 cells from Aβ cytotoxicity (LDH release), as a multiple of the EC50 of NAHIS04” value is 2 to 3 times.
For EVHHQKL [NA7], the “EC50 of protection of PC12 cells from Aβ cytotoxicity (LDH release), as a multiple of the EC50 of NAHIS04” value lay in the range of 2 to 3 times.
